Source: article PMC4980427, “Ctf4 Links DNA Replication with Sister Chromatid Cohesion Establishment by Recruiting the Chl1 Helicase to the Replisome” (Molecular Cell, 2016)

Biological target: the molecule itself
Test: negative-stain single-particle EM of reconstituted assemblies; purified Ctf4 core, GINS and Chl1 mixed in equimolar amounts; reconstituted assemblies on silver-stained gel and two-dimensional class averages

B1: Ctf4 (residues 471–927) (domain or fragment, S. cerevisiae, UniProt Q01454 471-927, looked up)
chain: TGKFRYMPFSPAGTPFGFTDRRYLTMNEVGYVSTVKNSEQYSITVSFFDVGRFREYHFEDLFGYDLCFLNEKGTLFGQSKTGQIQYRPHDSIHSNWTKIIPLQAGERITSVAATPVRVIVGTSLGYFRSFNQFGVPFAVEKTSPIVALTAQNYRVFSVHYSQFHGLSYSLSELGTSSKRYYKRECPLPMSLPNINSDMKKDANLDYYNFNPMGIKSLFFSSYGDPCIFGSDNTLLLLSKWRSPEESKWLPILDSNMEIWKMSGGKETTDIHVWPLALAYDTLNCILVKGKHIWPEFPLPLPSEMEIRMPVFVKSKLLEENKAILNKKNEIGADTEAEEGEEDKEIQIPVSMAAEEEYLRSKVLSELLTDTLENDGEMYGNENEVLAALNGAYDKALLRLFASACSDQNVEKALSLAHELKQDRALTAAVKISERAELPSLVKKINNIREARYEQQLK
notes: Ctf4 C-terminal trimerization core that contains the CIP box acceptor, residues 471-927; also called Ctf4 C-terminal trimerization core; Ctf4 core; source: E. coli, overexpressed, purified
  stoichiometry N: 3
